What was measured:
[1] = biological target: T1, His-tagged GLI1 fragment, amino acids 426-754
T1 chain: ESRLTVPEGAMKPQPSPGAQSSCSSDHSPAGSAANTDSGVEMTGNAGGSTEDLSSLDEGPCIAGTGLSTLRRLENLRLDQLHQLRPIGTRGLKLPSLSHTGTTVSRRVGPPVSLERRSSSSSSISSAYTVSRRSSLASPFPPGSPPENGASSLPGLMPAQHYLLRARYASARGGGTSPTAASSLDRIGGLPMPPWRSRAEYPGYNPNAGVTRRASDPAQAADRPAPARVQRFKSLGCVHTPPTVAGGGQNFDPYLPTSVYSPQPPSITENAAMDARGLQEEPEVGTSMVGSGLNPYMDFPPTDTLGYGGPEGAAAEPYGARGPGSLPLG

[2] = biological target: T2, His-tagged GLI1 fragment, amino acids 1-433
T2 chain: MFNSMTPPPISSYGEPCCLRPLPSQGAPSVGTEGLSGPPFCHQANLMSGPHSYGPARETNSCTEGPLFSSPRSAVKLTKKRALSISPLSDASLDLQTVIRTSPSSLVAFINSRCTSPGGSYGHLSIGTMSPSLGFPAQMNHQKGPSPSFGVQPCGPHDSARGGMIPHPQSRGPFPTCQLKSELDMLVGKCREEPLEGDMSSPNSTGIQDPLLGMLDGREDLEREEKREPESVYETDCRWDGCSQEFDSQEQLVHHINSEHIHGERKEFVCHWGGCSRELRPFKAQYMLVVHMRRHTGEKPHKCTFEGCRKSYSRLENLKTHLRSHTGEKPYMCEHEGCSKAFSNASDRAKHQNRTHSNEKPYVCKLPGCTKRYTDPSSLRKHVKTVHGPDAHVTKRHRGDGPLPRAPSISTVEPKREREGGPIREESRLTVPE

FLAG-tagged GLI2, P10070 = biological target: T3, FLAG-tagged GLI2, P10070
T3 chain: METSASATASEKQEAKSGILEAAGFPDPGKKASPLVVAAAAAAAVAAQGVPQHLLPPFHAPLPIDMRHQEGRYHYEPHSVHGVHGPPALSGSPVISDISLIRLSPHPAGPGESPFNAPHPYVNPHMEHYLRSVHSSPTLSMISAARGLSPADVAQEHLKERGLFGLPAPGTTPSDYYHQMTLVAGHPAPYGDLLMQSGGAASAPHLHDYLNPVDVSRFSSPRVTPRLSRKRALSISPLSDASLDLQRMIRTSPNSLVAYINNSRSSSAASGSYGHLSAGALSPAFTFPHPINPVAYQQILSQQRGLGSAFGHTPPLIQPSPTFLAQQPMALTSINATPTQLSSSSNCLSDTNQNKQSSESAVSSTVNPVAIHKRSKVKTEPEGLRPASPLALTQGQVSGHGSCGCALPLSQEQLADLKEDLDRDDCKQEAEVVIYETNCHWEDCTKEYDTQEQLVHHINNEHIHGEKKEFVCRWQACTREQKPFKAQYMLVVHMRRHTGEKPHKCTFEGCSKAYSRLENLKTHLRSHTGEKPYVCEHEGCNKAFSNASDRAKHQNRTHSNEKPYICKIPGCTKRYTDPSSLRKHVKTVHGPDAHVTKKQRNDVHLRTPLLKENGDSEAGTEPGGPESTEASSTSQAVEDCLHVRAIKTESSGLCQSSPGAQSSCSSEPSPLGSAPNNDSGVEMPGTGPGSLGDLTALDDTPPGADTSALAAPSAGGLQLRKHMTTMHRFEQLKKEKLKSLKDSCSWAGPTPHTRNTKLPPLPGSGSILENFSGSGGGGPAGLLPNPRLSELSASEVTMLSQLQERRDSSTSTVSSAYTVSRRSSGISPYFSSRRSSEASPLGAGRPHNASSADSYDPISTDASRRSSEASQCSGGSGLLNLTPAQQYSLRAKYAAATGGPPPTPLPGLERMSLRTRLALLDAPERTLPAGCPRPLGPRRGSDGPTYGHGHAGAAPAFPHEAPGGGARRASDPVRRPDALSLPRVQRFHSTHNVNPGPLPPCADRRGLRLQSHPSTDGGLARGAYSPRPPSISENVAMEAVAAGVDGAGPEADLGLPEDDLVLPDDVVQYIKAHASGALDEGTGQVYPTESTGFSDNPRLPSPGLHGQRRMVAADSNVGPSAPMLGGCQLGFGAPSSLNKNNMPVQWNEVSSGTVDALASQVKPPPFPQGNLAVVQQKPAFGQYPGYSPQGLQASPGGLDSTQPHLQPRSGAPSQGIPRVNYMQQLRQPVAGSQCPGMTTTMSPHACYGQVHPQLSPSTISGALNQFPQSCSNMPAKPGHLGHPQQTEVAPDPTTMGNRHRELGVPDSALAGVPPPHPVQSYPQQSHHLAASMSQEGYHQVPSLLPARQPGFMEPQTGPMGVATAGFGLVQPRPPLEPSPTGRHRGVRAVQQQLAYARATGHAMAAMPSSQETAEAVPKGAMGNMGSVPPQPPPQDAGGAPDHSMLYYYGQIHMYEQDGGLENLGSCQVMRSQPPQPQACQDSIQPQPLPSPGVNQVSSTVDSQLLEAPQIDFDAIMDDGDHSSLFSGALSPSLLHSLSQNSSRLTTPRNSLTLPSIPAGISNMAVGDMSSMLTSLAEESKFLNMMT

B1: FLAG-tagged wild-type ULK3 (human serine/threonine kinase ULK3) (protein)
chain: MAGPGWGPPRLDGFILTERLGSGTYATVYKAYAKKDTREVVAIKCVAKKSLNKASVENLLTEIEILKGIRHPHIVQLKDFQWDSDNIYLIMEFCAGGDLSRFIHTRRILPEKVARVFMQQLASALQFLHERNISHLDLKPQNILLSSLEKPHLKLADFGFAQHMSPWDEKHVLRGSPLYMAPEMVCQRQYDARVDLWSMGVILYEALFGQPPFASRSFSELEEKIRSNRVIELPLRPLLSRDCRDLLQRLLERDPSRRISFQDFFAHPWVDLEHMPSGESLGRATALVVQAVKKDQEGDSAAALSLYCKALDFFVPALHYEVDAQRKEAIKAKVGQYVSRAEELKAIVSSSNQALLRQGTSARDLLREMARDKPRLLAALEVASAAMAKEEAAGGEQDALDLYQHSLGELLLLLAAEPPGRRRELLHTEVQNLMARAEYLKEQVKMRESRWEADTLDKEGLSESVRSSCTLQ
With B1 the “in vitro kinase assay, phosphorylation of a His-tagged GLI1 fragment” value [1] was “Central part of GLI1 (amino acids 426-754) was not phosphorylated by ULK3”, the “in vitro kinase assay, phosphorylation of a His-tagged GLI1 fragment” value [2] was “Two of them-GLI1(1-433) and GLI1(726-1106)-were phosphorylated by ULK3” and the “in vitro kinase assay, phosphorylation signal (32P autoradiography)” value (FLAG-tagged GLI2, P10070) was “The strongest phosphorylation signal was detected in the case of GLI2”.
